The values below come from the supplement of paper PMC10567573.

B1: CDKL4 (parent)
chain: AVKKFVESEDDPVVKKIALREIRM
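Further: lentivirally expressed fusions sorted by FACS into six bins by GFP to DsRed ratio, PSI derived from sequencing read proportions per bin multiplied by bin number.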

The data set covers variants of B1. The data set is described as follows: protein stability index of a GFP-peptide fusion (GPS, HEK-293T) (PSI 1-6); higher = more stable. As to conditions: c terminus: a fixed tail appended.
For AVKKFVESEDDPVVKSIALREIRM, the protein stability index amounted to 3.23.

For the variant AVKKFVESEDDPVVKTIALREIRM, the protein stability index is 3.11.

Consider AVKKFVESEDDPVVKFIALREIRM, for which the protein stability index is 2.77.

As for AVKKFVESEDDPVVKHIALREIRM, the protein stability index worked out at 3.22.

On to AVKKFVESEDDPVVKQIALREIRM, for which the protein stability index turned out to be 3.48.

For the variant AVKKFVESEDDPVVKCIALREIRM, the protein stability index was determined as 2.92.

In the case of AVKKFVESEDDPVVKWIALREIRM, the protein stability index worked out at 2.05.

AVKKFVESEDDPVVKVIALREIRM: the protein stability index stood at 2.27.

AVKKFVESEDKPVVKKIALREIRM: the protein stability index is 3.22.

Consider AVKKFVESEDMPVVKKIALREIRM, for which the protein stability index turned out to be 2.44.

As for AVKKFVESEDIPVVKKIALREIRM, the protein stability index was 2.58.

Turning to AVKKFVESEDSPVVKKIALREIRM, the protein stability index was determined as 2.87.

As to AVKKFVESEDNPVVKKIALREIRM, the protein stability index amounted to 3.19.

For AVKKFVESEDQPVVKKIALREIRM, the protein stability index was 2.81.

With AVKKFVESEDVPVVKKIALREIRM, the protein stability index worked out at 2.44.

On to AVKKFVESEDHPVVKKIALREIRM, for which the protein stability index was determined as 2.96.

In the case of AVKKFVESEDPPVVKKIALREIRM, the protein stability index came out at 2.81.

AVKKFVESEDGPVVKKIALREIRM: the protein stability index came to 1.8.

In the case of AVKKFVESEDFPVVKKIALREIRM, the protein stability index came to 2.25.

With AVKKFVESEDDPVVKKIAQREIRM, the protein stability index worked out at 4.22.

As to AVKKFVESEDDPVVKKIAYREIRM, the protein stability index was determined as 3.41.

Regarding AVKKFVESEDDPVVKKIATREIRM, the protein stability index turned out to be 4.34.

On to AVKKFVESEDDPVVKKIAWREIRM, for which the protein stability index was found to be 3.15.

Regarding AVKKFVESEDDPVVKKIAEREIRM, the protein stability index worked out at 4.76.

Turning to AVKKFVESEDDPVVKKIAVREIRM, the protein stability index is 3.47.

Turning to AVKKFVESEDDPVVKKIALREINM, the protein stability index was 4.2.

Turning to AVKKFVESEDDPVVKKIALREIVM, the protein stability index came to 1.44.

With AVKKFVESEDDPVVKKIALREITM, the protein stability index worked out at 2.74.

With AVKKFVESEDDPVVKKIALREIQM, the protein stability index came to 3.29.

As to AVKKFVESEDDPVVKKIALREISM, the protein stability index is 2.75.

In the case of AVKKFVESEDDPVVKKIALREICM, the protein stability index turned out to be 2.78.

Take AVKKFVESEDDPVVKKIALREIGM: the protein stability index amounted to 3.16.

On to AVKKFVESEDDPVVKKIALREILM, for which the protein stability index turned out to be 1.45.

Consider AVKKFVESEDDPVVKKIALREIPM, for which the protein stability index was 3.67.

For the variant AVKKFVESEDDPVVKKIALREIEM, the protein stability index stood at 4.24.

On to AVKKFVESEDDPVDKKIALREIRM, for which the protein stability index came to 3.48.

AVKKFVESEDDPVTKKIALREIRM: the protein stability index is 3.26.

AVKKFVESEDDPVLKKIALREIRM: the protein stability index was 2.89.

For the variant AVKKFVESEDDPVEKKIALREIRM, the protein stability index worked out at 4.1.

As for AVKKFVESEDDPVKKKIALREIRM, the protein stability index was 2.82.

Take AVKKFVESEDDPVIKKIALREIRM: the protein stability index was 2.56.

As for AVKKFVESEDDPVRKKIALREIRM, the protein stability index was determined as 3.44.

As to AVKKFVESEDDPVYKKIALREIRM, the protein stability index is 2.54.

For AVKKFVESEDDPVVKKEALREIRM, the protein stability index was determined as 3.93.

Consider AVKKFVESEDDPVVKKKALREIRM, for which the protein stability index came to 3.87.

In the case of AVKKFVESEDDPVVKKWALREIRM, the protein stability index turned out to be 2.15.

For AVKKFVESEDDPVVKKCALREIRM, the protein stability index turned out to be 3.32.

Consider AVKKFVESEDDPVVKKRALREIRM, for which the protein stability index came out at 3.45.

With AVKKFVESEDDPVVKKVALREIRM, the protein stability index came out at 3.22.

Take AVKKFVESEDDPVVKKDALREIRM: the protein stability index turned out to be 4.36.

As for AVKKFVESEDDPVVKKAALREIRM, the protein stability index is 3.95.

For AVKKFVESEDDPVVKKLALREIRM, the protein stability index was 2.57.

On to AVKKFVESEDDPVVKKIALREIRN, for which the protein stability index is 2.95.

In the case of AVKKFVESEDDPVVKKIALREIRP, the protein stability index amounted to 3.43.

Take AVKKFVESEDDPVVKKIALREIRC: the protein stability index was found to be 2.76.

Consider AVKKFVESEDDPVVKKIALREIRS, for which the protein stability index stood at 3.71.

Turning to AVKKFVESEDDPVVKKIALREIRH, the protein stability index turned out to be 3.59.

AVKKFVESEDDPVVKKIALREIRW: the protein stability index came to 2.48.

With AVKKFVESEDDPVVKKIALREIRV, the protein stability index was 3.36.

As for RVKKFVESEDDPVVKKIALREIRM, the protein stability index came to 2.45.

Turning to PVKKFVESEDDPVVKKIALREIRM, the protein stability index came out at 3.17.

Regarding HVKKFVESEDDPVVKKIALREIRM, the protein stability index amounted to 2.59.

For VVKKFVESEDDPVVKKIALREIRM, the protein stability index was determined as 2.43.

As for YVKKFVESEDDPVVKKIALREIRM, the protein stability index was 2.2.

With WVKKFVESEDDPVVKKIALREIRM, the protein stability index was 2.72.

On to MVKKFVESEDDPVVKKIALREIRM, for which the protein stability index is 2.69.

On to AVKKFVESEDDPVVKKIALRCIRM, for which the protein stability index was found to be 2.37.

In the case of AVKKFVESEDDPVVKKIALRYIRM, the protein stability index turned out to be 2.69.

As to AVKKFVESEDDPVVKKIALRGIRM, the protein stability index turned out to be 3.24.

For AVKKFVESEDDPVVKKIALRAIRM, the protein stability index was 2.42.

On to AVKKFVESEDDPVVKKIALRFIRM, for which the protein stability index is 1.7.

Take AVKKFVESEDDRVVKKIALREIRM: the protein stability index worked out at 3.46.

As for AVKKFVESEDDAVVKKIALREIRM, the protein stability index is 3.04.

As to AVKKFVESEDDGVVKKIALREIRM, the protein stability index amounted to 2.57.

Take AVKKFVESEDDVVVKKIALREIRM: the protein stability index amounted to 2.48.

Regarding AVKKFVESEDDCVVKKIALREIRM, the protein stability index came out at 3.05.

Turning to AVKKFVESEDDDVVKKIALREIRM, the protein stability index is 3.22.

Consider AVKKFVESEDDYVVKKIALREIRM, for which the protein stability index is 2.18.

As for AGKKFVESEDDPVVKKIALREIRM, the protein stability index amounted to 3.82.

For the variant AFKKFVESEDDPVVKKIALREIRM, the protein stability index was 2.52.

As to ACKKFVESEDDPVVKKIALREIRM, the protein stability index is 2.85.

AMKKFVESEDDPVVKKIALREIRM: the protein stability index worked out at 2.79.

Turning to APKKFVESEDDPVVKKIALREIRM, the protein stability index came to 3.74.

As to AQKKFVESEDDPVVKKIALREIRM, the protein stability index was 3.56.

For ADKKFVESEDDPVVKKIALREIRM, the protein stability index came to 3.71.

Consider AVKKFVESEDDPVVKKIALRELRM, for which the protein stability index was found to be 3.11.

On to AVKKFVESEDDPVVKKIALREERM, for which the protein stability index was 4.04.

As for AVKKFVESEDDPVVKKIALRETRM, the protein stability index was 4.01.

Regarding AVKKFVESEDDPVVKKIALREMRM, the protein stability index is 3.29.

As for AVKKFVESEDDPVVKKIALREFRM, the protein stability index came to 2.18.

For AVKKFVESEDDPVVKKIALREPRM, the protein stability index was found to be 4.54.

For the variant AVKKFVESEDDPVVKKIALRECRM, the protein stability index worked out at 3.32.

Regarding AVKKFVESEDDPVVKKIALREKRM, the protein stability index is 4.29.

For the variant AVKKFVESEDDPVVKKIALKEIRM, the protein stability index was found to be 3.67.
